Reference: patent publication US20120316071A1 (published 2012)
Blank lines part the entries; values can stand above or below the binder they belong to.

Columns and labels:
[1] = molecular target: T1, rHuman EGF R/Fc Chimera, CF (R&D Systems Cat#344-ER) (human, UniProt P00533 25-645); assay: ECL Multispot (MSD), antigen spotted; Fab 50 (µM); blank 386
T1 construct: Bought recombinant protein; Fc part of the bought chimera not given

[2] = molecular target: T2, rHuman CD44/Fc Chimera, CF (R&D Systems Cat#3660-CD) (human, UniProt P16070 21-220); assay: Multispot ECL (MSD) titration; antigen spotted on plate; Fab 930 nM; blank spot 1206
T2 construct: Bought Fc chimera; Fc part of the bought chimera not given

[3] = molecular target: T3, rHuman Erythropoietin R/Fc Chimera, CF (R&D Systems Cat#963-ER) (human, UniProt P19235 25-250); assay: as above
T3 construct: Bought Fc chimera; also called EPO R/Fc; EPO R; Fc part of the bought chimera not given
T3 sequence (looked up): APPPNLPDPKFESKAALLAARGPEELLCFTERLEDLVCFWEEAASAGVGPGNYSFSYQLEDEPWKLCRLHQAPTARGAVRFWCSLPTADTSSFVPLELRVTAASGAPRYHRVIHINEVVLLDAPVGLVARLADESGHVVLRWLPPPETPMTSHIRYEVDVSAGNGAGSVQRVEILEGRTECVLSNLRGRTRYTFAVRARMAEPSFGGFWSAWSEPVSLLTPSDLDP

[4] = molecular target: T4, rHuman P-Cadherin/Fc Chimera, CF (R&D Systems Cat#861-PC) (human, UniProt P22223 108-654); assay: as above
T4 construct: Bought Fc chimera; Fc part of the bought chimera not given

[5] = molecular target: T5, rHuman Notch-1/Fc Chimera, CF (R&D Systems Cat#3647-TK) (human, UniProt P46531 19-526); assay: as above
T5 construct: Bought Fc chimera; Fc part of the bought chimera not given

[6] = molecular target: T6, rHuman ErbB2/Fc Chimera, CF (R&D Systems Cat#1129-ER) (human, UniProt P04626 23-652); assay: as above
T6 construct: Bought Fc chimera; also called human epidermal growth factor 2 receptor; Fc part of the bought chimera not given

[7] = molecular target: T7, rHuman IGF-1 sR (IGF-1 sR), CF (R&D Systems Cat#391-GR) (human, UniProt P08069 31-932); assay: as above
T7 construct: Bought soluble receptor; also called insulin-like growth factor-1 soluble receptor

[8] = molecular target: T8, Recombinant Human DLL4 (R&D Systems Cat#1506-D4/CF) (human, UniProt Q9NR61 27-524); assay: as above
T8 construct: Bought recombinant protein; also called delta-like protein 4; rHuman DLL4

[9] = molecular target: T9, Recombinant Human DLL4 (R&D Systems Cat#1506-D4/CF) (human, UniProt Q9NR61 27-524); assay: MSD Multispot ECL, antigen spotted on plate, Fab at 3.8 nM; blank spot 198
T9 construct: Bought recombinant protein; also called rHuman DLL4; delta-like protein 4

[10] = molecular target: T10, rHuman Erythropoietin R/Fc Chimera, CF (R&D Systems Cat#963-ER) (human, UniProt P19235 25-250); assay: as above
T10 construct: Bought Fc chimera; also called EPO R/Fc; Epo R; Fc part of the bought chimera not given
T10 sequence (looked up): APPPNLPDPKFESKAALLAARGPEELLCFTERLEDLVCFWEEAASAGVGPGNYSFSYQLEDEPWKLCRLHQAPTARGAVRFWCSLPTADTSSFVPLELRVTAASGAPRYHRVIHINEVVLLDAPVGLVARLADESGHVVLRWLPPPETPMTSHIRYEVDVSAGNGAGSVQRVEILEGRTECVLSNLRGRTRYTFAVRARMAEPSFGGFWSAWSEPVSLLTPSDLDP

[11] = molecular target: T11, rHuman Notch-1/Fc Chimera, CF (R&D Systems Cat#3647-TK) (human, UniProt P46531 19-526); assay: as above
T11 construct: Bought Fc chimera; Fc part of the bought chimera not given

[12] = molecular target: T12, rHuman P-Cadherin/Fc Chimera, CF (R&D Systems Cat#861-PC) (human, UniProt P22223 108-654); assay: as above
T12 construct: Bought Fc chimera; Fc part of the bought chimera not given

[13] = molecular target: T13, rHuman CD44/Fc Chimera, CF (R&D Systems Cat#3660-CD) (human, UniProt P16070 21-220); assay: as above
T13 construct: Bought Fc chimera; Fc part of the bought chimera not given

[14] = molecular target: T14, Recombinant Human DLL4 (R&D Systems Cat#1506-D4/CF) (human, UniProt Q9NR61 27-529); assay: MSD Multispot ECL, antigen spotted on plate, Fab 8.1 nM; blank spot 435
T14 construct: Bought recombinant protein; also called rHuman DLL4; delta-like protein 4

[15] = molecular target: T15, rHuman IGF-1 sR, (IGF-1 sR), CF (R&D Systems Cat#391-GR) (human, UniProt P08069 31-932); assay: as above
T15 construct: Bought soluble receptor; also called insulin-like growth factor-1 soluble receptor

[16] = molecular target: T16, rHuman ErbB2/Fc Chimera, CF (R&D Systems Cat#1129-ER) (human, UniProt P04626 23-652); assay: as above
T16 construct: Bought reagent; also called human epidermal growth factor 2 receptor; Fc part of the bought chimera not given

[17] = molecular target: T17, rHuman HGF R/c-MET/Fc Chimera, CF (R&D Systems Cat#358-MT/CF) (human, UniProt P08581 25-932); assay: as above
T17 construct: Bought reagent; also called HGF R/Fc; hepatocyte growth factor receptor; Fc part of the bought chimera not given

[18] = molecular target: T18, rHuman Notch-1/Fc Chimera, CF (R&D Systems Cat#3647-TK) (human, UniProt P46531 19-526); assay: as above
T18 construct: Bought reagent; Fc part of the bought chimera not given

[19] = molecular target: T19, rHuman Erythropoietin R/Fc Chimera, CF (R&D Systems Cat#963-ER) (human, UniProt P19235 25-250); assay: as above
T19 construct: Bought reagent; also called EPO R/Fc; EPO R; Fc part of the bought chimera not given
T19 sequence (looked up): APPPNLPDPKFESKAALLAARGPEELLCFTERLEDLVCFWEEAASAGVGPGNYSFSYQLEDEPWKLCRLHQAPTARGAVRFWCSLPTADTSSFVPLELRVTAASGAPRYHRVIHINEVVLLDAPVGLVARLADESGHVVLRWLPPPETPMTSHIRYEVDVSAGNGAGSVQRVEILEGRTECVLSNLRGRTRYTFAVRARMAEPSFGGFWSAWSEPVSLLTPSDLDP

T17 sequence (P08581 25-932, change not shown): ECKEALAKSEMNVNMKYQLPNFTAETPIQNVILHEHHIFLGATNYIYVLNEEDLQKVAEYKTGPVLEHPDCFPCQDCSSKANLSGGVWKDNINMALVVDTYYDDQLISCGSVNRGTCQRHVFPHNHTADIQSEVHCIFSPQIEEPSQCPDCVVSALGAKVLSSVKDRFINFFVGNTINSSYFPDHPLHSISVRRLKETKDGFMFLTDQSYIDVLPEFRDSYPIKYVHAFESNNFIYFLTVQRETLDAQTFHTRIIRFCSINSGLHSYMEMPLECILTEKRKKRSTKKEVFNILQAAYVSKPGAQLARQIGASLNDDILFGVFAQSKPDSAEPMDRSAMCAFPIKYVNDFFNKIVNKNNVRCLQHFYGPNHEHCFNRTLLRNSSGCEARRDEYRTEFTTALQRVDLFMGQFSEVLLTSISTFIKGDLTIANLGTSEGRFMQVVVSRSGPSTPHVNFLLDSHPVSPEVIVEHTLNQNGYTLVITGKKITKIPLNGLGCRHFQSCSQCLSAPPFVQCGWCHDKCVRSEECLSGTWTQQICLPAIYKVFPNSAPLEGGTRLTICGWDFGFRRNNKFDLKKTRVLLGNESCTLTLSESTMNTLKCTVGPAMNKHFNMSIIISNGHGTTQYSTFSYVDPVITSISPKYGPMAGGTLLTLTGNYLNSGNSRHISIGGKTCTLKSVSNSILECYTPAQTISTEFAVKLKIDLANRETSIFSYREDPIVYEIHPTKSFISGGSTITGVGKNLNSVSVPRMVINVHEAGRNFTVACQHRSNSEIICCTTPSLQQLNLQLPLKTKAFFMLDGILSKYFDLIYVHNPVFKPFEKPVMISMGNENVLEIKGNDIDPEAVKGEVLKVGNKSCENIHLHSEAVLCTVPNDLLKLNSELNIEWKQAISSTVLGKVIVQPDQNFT

- ECL signal [2]: 1920
- ECL signal [3]: 3010
- ECL signal [4]: 2440
- ECL signal [5]: 2210
- ECL signal [6]: 2220
- ECL signal [7]: 1920
- ECL signal [8]: 8160
B2: Fab VH1-46_IGHD6-13*01_IGHJ4*01 & O1_IGKJ1*01 (Fab, V domains shown)
VH: QVQLVQSGAEVKKPGASVKVSCKASGYTFTSYYMHWVRQAPGQGLEWMGIINPSGGSTSYAQKFQGRVTMTRDTSTSTVYMELSSLRSEDTAVYYCAREGYSSSWYDYFDYWGQGTLVTVSS
VL: DIVMTQTPLSLPVTPGEPASISCRSSQSLLDSDDGNTYLDWYLQKPGQSPQLLIYTLSYRASGVPDRFSGSGSGTDFTLKISRVEAEDVGVYYCMQRIEFPSWTFGQGTKVEIKR
notes: Germline library Fab expressed in E. coli; VH was cloned into Plasmid A (CH1 constant region, His6 and Flag tags); The kappa VL was cloned into Plasmid C (kappa CL)

- ECL signal [14]: 1550
- ECL signal [15]: 518
- ECL signal [16]: 557
- ECL signal [17]: 551
- ECL signal [18]: 612
- ECL signal [19]: 660
B4: Fab VH1-8_IGHD2-2*01_IGHJ6*01 & L12_IGKJ1*01 (Fab, V domains shown)
VH: QVQLVQSGAEVKKPGASVKVSCKASGYTFTSYDINWVRQATGQGLEWMGWMNPNSGNTGYAQKFQGRVTMTRNTSISTAYMELSSLRSEDTAVYYCARGGYCSSTSCYADYYYYYGMDVWGQGTTVTVSS
VL: not shown

Continued, binder first:

B1: Fab VH1-46_IGHD6-6*01_IGHJ1*01 S102A/S103P/S104F (APF) & L6_IGKJ1*01 (Fab, V domains shown)
VH: QVQLVQSGAEVKKPGASVKVSCKASGYTFTSYYMHWVRQAPGQGLEWMGIINPSGGSTSYAQKFQGRVTMTRDTSTSTVYMELSSLRSEDTAVYYCAREEYAPFSAEYFQHWGQGTLVTVSS
VL: not shown
notes: Tested as a Fab made in E. coli: VH cloned in Plasmid A (CH1 constant region, His6 and Flag tags), VL in Plasmid C (kappa constant region); also called H:APF & L:wt; APF triple mutant
- ECL signal [1]: 585

B3: Fab VH6-1_IGHD3-3*01_IGHJ4*01 & V4-3_IGLJ4*01 (Fab, V domains shown)
VH: QVQLQQSGPGLVKPSQTLSLTCAISGDSVSSNSAAWNWIRQSPSRGLEWLGRTYYRSKWYNDYAVSVKSRITINPDTSKNQFSLQLNSVTPEDTAVYYCAREYYDFWSGYYTDYFDYWGQGTLVTVSS
VL: QPVLTQPTSLSASPGASARLTCTLRSGINLGSYRIFWYQQKPESPPRYLLSYYSDSSKHQGSGVPSRFSGSKDASSNAGILVISGLQSEDEADYYCMIWHSSASFVFGGGTQLIIL
notes: Tested as a purified germline Fab made in E. coli; The VH was cloned into plasmid A (CH1 constant region, His6 and Flag tags) and the lambda VL into plasmid E (lambda CL)
- ECL signal [9]: 462
- ECL signal [10]: 407
- ECL signal [11]: 383
- ECL signal [12]: 281
- ECL signal [13]: 419
